From the supplement of paper PMC10567573

B1: USP39 (parent)
chain: FVEKNPTIVNFPITNVDLREYLSE
B2: CLCN6 (parent)
chain: ILRSQLVTLLVRGVCYSESQSSAS

Variants of: B1
Test: protein stability index of a GFP-peptide fusion (GPS, HEK-293T) (PSI 1-6); higher = more stable
Details: c terminus: a fixed tail appended
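Note: lentivirally expressed fusions sorted by FACS into six bins by GFP to DsRed ratio, PSI derived from sequencing read proportions per bin multiplied by bin number.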

Protein stability index, by site and new letter:
E20: N 1.55; I 2.01; G 1.13; V 2.28; Y 2.88; W 1.77; M 2.41; S 2.5; K 2.56; Q 2.08; P 2.02; R 1.41; T 1.46; L 1.39; H 2.01; A 1.46; D 1.81; F 1.71; C 1.68
L18: H 1.42; W 2.33; D 2.21; R 1.71; P 1.24; V 2.65; Y 1.92; N 1.78; F 2.06; E 2.05; G 2.1; T 1.54; I 2.53; Q 2.64; A 1.69; M 1.64; S 1.43; C 2.64; K 1.3
R19: D 1.44; E 2.09; A 2.92; H 1.25; Q 2.35; T 1.63; M 1.65; P 2.08; G 1.64; W 2.13; K 1.78; F 2.81; S 1.31; L 2.06; V 1.83; Y 2.1; C 2.05; I 2.49; N 1.99
L22: F 2.1; S 2.49; M 2.07; W 1.74; G 2.12; A 2.47; E 1.75; C 1.12; P 1.84; T 2.03; N 1.47; Y 1.9; H 1.5; R 1.66; K 2.09; I 1.93; D 1.64; V 1.83; Q 2.44
S23: G 1.34; M 2; Y 4.51; F 2.12; I 3.78; H 2.76; E 1.83; Q 1.78; P 2.13; T 1.06; V 1.77; D 1.84; L 1.11; C 2.41; R 2.02; K 2.59; N 1.65; A 1.57
D17: V 2.64; Q 1.92; S 2.28; T 1.35; Y 1.84; W 1.4; N 1.55; M 1.62; R 2.25; L 1.28; P 1.34
Y21: M 1.49; G 2.44; W 1.47; N 1.9; I 2.04; K 1.21; H 2.84; A 2.35; D 1.71; F 2.04; V 1.52; T 1.86; P 1.62; S 2.27; R 1.57; C 1.6; Q 1.87; L 2.27; E 2.21
E24: D 1.37; I 1.64; M 1.59; Y 1.84; Q 2.04; G 2.14; C 2.11; T 1.78; N 2.24; F 2.02; K 1.84; S 1.88; P 2.1; H 2.5; A 2.19; W 1.93; L 2.27; R 1.53

Variants of: B2
Test: as above
Details: c terminus: a fixed tail appended

Protein stability index of substitutions, site by site:
I1: R 2.09; K 3.63; F 3.23; P 2.04; A 3.79; M 3.86; H 1.82; T 2.87; S 3.03; W 3.34; G 2.2; C 2.09; L 3.03; D 3.23
L2: E 1.93; G 2.64; N 2.06; C 3.49; D 1.66; P 2.01; H 1.3; K 2.42; M 3.88; I 3.02; F 2.44
